Five molecules from paper PMC10333351 (Nature Communications, 2023) can be followed below.

Series [1] concerns the molecule itself. Put plainly: crystal structure; FtsZtr mixed with 1.2x molar excess of Mb and PC190723; hanging drop, 293 K, 0.2 M sodium formate, 0.1 M Bis-Tris propane pH 6.5, 20% PEG3350; space groups P212121 and P21.
Series [2] deals with the molecule itself. Put plainly: cryo-EM structure; KpFtsZ-Mb double-helical tube: 4.0 mg/ml KpFtsZ, 20 mM HEPES pH 7.5, 25 mM NaCl, 100 mM KCl, 5 mM MgCl2, 1 mM GMPPNP, 0.12 mM PC190723, 1.2x molar excess of Mb.
Series [3] concerns the molecule itself. Put plainly: negative staining EM; 1.0 mg/ml purified KpFtsZ alone or with 1 mM GTP, GMPCPP, GDP or GMPPNP; uranyl acetate stain.
Series [4] deals with T1, FtsZ from Escherichia coli, full length, purified (tag state not stated) (Escherichia coli, UniProt P0A9A6 1-383).
T1 chain: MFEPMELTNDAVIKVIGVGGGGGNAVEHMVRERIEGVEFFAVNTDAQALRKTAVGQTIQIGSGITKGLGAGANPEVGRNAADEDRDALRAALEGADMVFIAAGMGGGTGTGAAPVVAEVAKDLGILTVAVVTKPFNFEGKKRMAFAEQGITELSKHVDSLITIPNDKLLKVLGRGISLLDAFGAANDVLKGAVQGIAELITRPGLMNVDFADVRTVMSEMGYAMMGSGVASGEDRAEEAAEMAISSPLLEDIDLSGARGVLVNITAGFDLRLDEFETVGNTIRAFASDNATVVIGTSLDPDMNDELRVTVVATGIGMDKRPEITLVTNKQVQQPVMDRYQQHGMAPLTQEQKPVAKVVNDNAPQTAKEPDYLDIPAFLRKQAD
Put plainly: SPR.

Series [5] deals with T2, FtsZ from Klebsiella pneumoniae, full length, purified (tag state not stated) (Klebsiella pneumoniae, UniProt W9BCK7 1-383).
T2 chain: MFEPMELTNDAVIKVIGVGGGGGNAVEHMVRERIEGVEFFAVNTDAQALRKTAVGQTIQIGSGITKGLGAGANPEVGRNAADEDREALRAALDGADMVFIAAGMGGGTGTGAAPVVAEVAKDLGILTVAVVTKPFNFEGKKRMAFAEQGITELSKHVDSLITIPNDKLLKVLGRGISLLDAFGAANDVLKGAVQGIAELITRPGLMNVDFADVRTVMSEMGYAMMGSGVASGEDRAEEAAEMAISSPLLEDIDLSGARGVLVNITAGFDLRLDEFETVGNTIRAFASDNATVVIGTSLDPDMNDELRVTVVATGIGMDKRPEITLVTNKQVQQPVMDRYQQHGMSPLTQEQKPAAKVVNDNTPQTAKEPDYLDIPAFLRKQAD
Put plainly: SPR. (Surface plasmon resonance follows binding to a sensor surface in real time, without labels.)

B1: truncated KpFtsZ (residues 11-316), tag removed (domain or fragment, Klebsiella pneumoniae, UniProt W9BCK7 11-316, looked up)
chain: AVIKVIGVGGGGGNAVEHMVRERIEGVEFFAVNTDAQALRKTAVGQTIQIGSGITKGLGAGANPEVGRNAADEDREALRAALDGADMVFIAAGMGGGTGTGAAPVVAEVAKDLGILTVAVVTKPFNFEGKKRMAFAEQGITELSKHVDSLITIPNDKLLKVLGRGISLLDAFGAANDVLKGAVQGIAELITRPGLMNVDFADVRTVMSEMGYAMMGSGVASGEDRAEEAAEMAISSPLLEDIDLSGARGVLVNITAGFDLRLDEFETVGNTIRAFASDNATVVIGTSLDPDMNDELRVTVVATGIG
notes: FtsZ, Klebsiella pneumoniae, residues 11-316; also called KpFtsZtr; source: E. coli, purified (HisTrap, HiTrap Q, Superdex200), tag removed with TEV protease; not shown: His6, N-terminal, cleaved
For the molecule B1, the binding result in series [1] was “binds”.

B2: truncated EcFtsZ (residues 11-316), tag removed (domain or fragment, Escherichia coli, UniProt P0A9A6 11-316, looked up)
chain: AVIKVIGVGGGGGNAVEHMVRERIEGVEFFAVNTDAQALRKTAVGQTIQIGSGITKGLGAGANPEVGRNAADEDRDALRAALEGADMVFIAAGMGGGTGTGAAPVVAEVAKDLGILTVAVVTKPFNFEGKKRMAFAEQGITELSKHVDSLITIPNDKLLKVLGRGISLLDAFGAANDVLKGAVQGIAELITRPGLMNVDFADVRTVMSEMGYAMMGSGVASGEDRAEEAAEMAISSPLLEDIDLSGARGVLVNITAGFDLRLDEFETVGNTIRAFASDNATVVIGTSLDPDMNDELRVTVVATGIG
notes: FtsZ, Escherichia coli, residues 11-316; also called EcFtsZtr; source: E. coli, purified (HisTrap, HiTrap Q, Superdex200), tag removed with TEV protease; not shown: His6, N-terminal, cleaved
In the case of B2, the binding result in series [1] was “binds”.

B3: FtsZ from Klebsiella pneumoniae, full length, tag removed (natural protein, UniProt W9BCK7 1-383, looked up)
chain: MFEPMELTNDAVIKVIGVGGGGGNAVEHMVRERIEGVEFFAVNTDAQALRKTAVGQTIQIGSGITKGLGAGANPEVGRNAADEDREALRAALDGADMVFIAAGMGGGTGTGAAPVVAEVAKDLGILTVAVVTKPFNFEGKKRMAFAEQGITELSKHVDSLITIPNDKLLKVLGRGISLLDAFGAANDVLKGAVQGIAELITRPGLMNVDFADVRTVMSEMGYAMMGSGVASGEDRAEEAAEMAISSPLLEDIDLSGARGVLVNITAGFDLRLDEFETVGNTIRAFASDNATVVIGTSLDPDMNDELRVTVVATGIGMDKRPEITLVTNKQVQQPVMDRYQQHGMSPLTQEQKPAAKVVNDNTPQTAKEPDYLDIPAFLRKQAD
notes: Used for cryoEM; Polymer (protofilament or double-helical tube); also called KpFtsZ; source: E. coli, purified (HisTrap, HiTrap Q, Superdex200), tag removed with TEV protease; not shown: His6, N-terminal, cleaved
Consider B3, for which the binding result in series [2] is reported as “binds”.

B4: FtsZ from Klebsiella pneumoniae, full length, purified (tag state not stated) (natural protein, UniProt W9BCK7 1-383, looked up)
chain: MFEPMELTNDAVIKVIGVGGGGGNAVEHMVRERIEGVEFFAVNTDAQALRKTAVGQTIQIGSGITKGLGAGANPEVGRNAADEDREALRAALDGADMVFIAAGMGGGTGTGAAPVVAEVAKDLGILTVAVVTKPFNFEGKKRMAFAEQGITELSKHVDSLITIPNDKLLKVLGRGISLLDAFGAANDVLKGAVQGIAELITRPGLMNVDFADVRTVMSEMGYAMMGSGVASGEDRAEEAAEMAISSPLLEDIDLSGARGVLVNITAGFDLRLDEFETVGNTIRAFASDNATVVIGTSLDPDMNDELRVTVVATGIGMDKRPEITLVTNKQVQQPVMDRYQQHGMSPLTQEQKPAAKVVNDNTPQTAKEPDYLDIPAFLRKQAD
notes: Used for SPR (analyte) and negative staining EM; also called KpFtsZ; source: E. coli, purified (HisTrap, HiTrap Q, Superdex200)
As for B4, the binding result in series [3] was “binds”.

B5: Mb(Ec/KpFtsZ_S1), His10-tagged (designed binder)
chain: MKHHHHHHHHHHSSDYKDDDDKGENLYFQGSVSSVPTKLEVVAATPTSLLISWDAPAVTVSYYRITYGETGGNSPVQEFTVPGSKSTATISGLSPGVDYTITVYARSAYHRRSPISINYRT
Turning to B5, the koff (usually the rate constant with which the complex falls apart) is 0.39 s⁻¹ in series [4] and 0.67 s⁻¹ in series [5].
